Target: T1, Full-length human CDK1 from a 3C-protease cleavable GST fusion (GPLGS left at the N terminus), … (human, UniProt P06493 1-297)
T1 construct: short cloning artefact left at the N terminus after 3C cleavage of the GST fusion; CDK1, human, full length; also called GST-CDK1 (before cleavage); unphosphorylated CDK1; source: insect cells (Sf9, baculovirus pVL1393GST-CDK1), purified (glutathione-sepharose 4B, GST-3C cleavage, SEC); for ITC treated with λ-phosphatase and purified again by SEC; not shown: GST, N-terminal, cleaved
T1 sequence (P06493 other isoform, or with tags, fused parts or gaps): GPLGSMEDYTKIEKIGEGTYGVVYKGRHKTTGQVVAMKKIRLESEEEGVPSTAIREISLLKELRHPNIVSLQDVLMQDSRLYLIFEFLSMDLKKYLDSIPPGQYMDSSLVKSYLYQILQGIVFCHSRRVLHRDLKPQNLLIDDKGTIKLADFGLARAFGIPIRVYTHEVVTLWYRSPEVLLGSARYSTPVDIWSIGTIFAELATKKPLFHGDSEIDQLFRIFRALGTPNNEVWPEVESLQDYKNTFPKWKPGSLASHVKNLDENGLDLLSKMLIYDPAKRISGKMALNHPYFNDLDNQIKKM
Experiment: ITC; higher salt, higher pH: 50 mM HEPES pH 8.0, 500 mM NaCl, 0.01% MTG, 30 °C; cyclin in the cell, unphosphorylated CDK from the syringe; one-set-of-sites model
Conditions: both partners purified

Kd: 28 nM
B1: Human cyclin B1, residues 165–433 carrying the C167S/C238S/C350S mutations (domain or fragment)
chain: GSHMNLSSEYVKDIYAYLRQLEEEQAVRPKYLLGREVTGNMRAILIDWLVQVQMKFRLLQETMYMTVSIIDRFMQNNSVPKKMLQLVGVTAMFIASKYEEMYPPEIGDFAFVTDNTYTKHQIRQMEMKILRALNFGLGRPLPLHFLRRASKIGEVDVEQHTLAKYLMELTMLDYDMVHFPPSQIAAGAFSLALKILDNGEWTPTLQHYLSYTEESLLPVMQHLAKNVVMVNQGLTKHMTVKNKYATSKHAKISTLPQLNSALVQDLAKAVAKV
notes: artefact left N-terminal to N165 after thrombin cleavage of the hexa-histidine tag; cyclin B1, human, residues 165–433 (begins at N165); not shown: His6, N-terminal, cleaved
